Source: patent US6017763

Key:
[1] = target: Sf9-derived p101/p120 heterodimer ((EE)-p101 with 6×HIS-p120), formed in vivo by co-infection or reconstituted in vitro (porcine)
[2] = target: porcine 6×HIS-tagged p120, Sf9-derived (pAcHLT p120), uncleaved (porcine)
[3] = target: porcine twice-cut p120 (thrombin cleaved, lacking approximately 40 amino-terminal residues) (porcine)
[4] = target: pig neutrophil Gβγ-activated PI3K B (p120/p101 heterodimer) (porcine)
[5] = target: pig neutrophil Gβγ-activated PI3K A (p117/p101 heterodimer) (porcine)

PI3K activity [1]: > 100 ×
PI3K activity of free p120 [2]: 1.7 fold
PI3K activity of thrombin cleaved p120 [3]: 2.5 fold
PI3K (lipid kinase) activity [4]: > 100 ×
PI3K (lipid kinase) activity [5]: > 100 ×
Substance: Gβγ subunits (purified G protein βγ subunits)
